# Molecular target: YY1;FOXP2 FHD (human?;human?, UniProt P25490;O15409 1-414;504-594, |)
# Test: EMSA; FOXP2 FHD 2.5-10 uM added; large complex more intense and slightly shifted; simultaneous binding suggested; Anisotropy: 10 mM HEPES pH 7.5, 100 mM NaCl, 20 C; EMSA: 0.5 uM DNA, 20% (v/v) of binding buffer (10 mM HEPES pH 7.5, 1 mM MgCl2, 100 mM KCl, 10% glycerol, 0.1)
# Conditions: protein: recombinant;recombinant; tags: N-terminal His6;His6 removed with thrombin
# Chain of YY1;FOXP2 FHD (P25490 whole entry, chain 1 of 2): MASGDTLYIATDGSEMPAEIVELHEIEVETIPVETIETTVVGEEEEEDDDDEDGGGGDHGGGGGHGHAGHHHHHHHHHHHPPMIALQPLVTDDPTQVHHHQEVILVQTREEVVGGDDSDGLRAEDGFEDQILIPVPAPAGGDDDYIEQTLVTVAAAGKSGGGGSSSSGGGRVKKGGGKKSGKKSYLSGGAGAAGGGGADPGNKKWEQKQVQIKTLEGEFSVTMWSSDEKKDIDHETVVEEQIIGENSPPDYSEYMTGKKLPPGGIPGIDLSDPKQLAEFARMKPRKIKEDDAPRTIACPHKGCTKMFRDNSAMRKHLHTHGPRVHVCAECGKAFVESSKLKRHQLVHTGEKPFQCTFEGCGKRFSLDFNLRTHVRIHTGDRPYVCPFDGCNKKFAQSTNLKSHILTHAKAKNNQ
# Chain of YY1;FOXP2 FHD (O15409 504-594, chain 2 of 2): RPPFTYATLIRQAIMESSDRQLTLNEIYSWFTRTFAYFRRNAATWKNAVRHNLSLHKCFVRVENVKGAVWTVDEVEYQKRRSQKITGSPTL
binder,measurement,value
AAV P5 DNA (dsDNA) DNA 1: AGGGTCTCCATTTTGAAGCG DNA 2: CGCTTCAAAATGGAGACCCT,binding result,binds
